One data set deals with human IL6 (Homo sapiens, UniProt P05231). The experiment in a line: Phage ELISA, binding to human IL6 in the presence or absence of adenosine and/or ATP. The settings on record: with or without 10 mM adenosine and ATP. The protocol:
Phage-containing culture supernatants were collected according to a conventional method (Methods Mol. Biol. (2002) 178, 133-145) from single colonies of E. coli obtained by the method described above. The collected culture supernatants were treated by ultrafiltration using NucleoFast 96 (MACHERY-NAGEL). 100 μl of the culture supernatants were added to each well of NucleoFast 96, and it was centrifuged (4500 g for 45 minutes) to remove flow through. After addition of 100 μl of H2O, the NucleoFast 96 was washed by centrifugation (4500 g for 30 minutes). Finally, 100 μl of TBS was added, and the NucleoFast 96 was allowed to stand for five minutes at room temperature. A phage suspension was collected from the supernatant in each well of the NucleoFast 96.
The purified phages, to which TBS or (adenosine+ATP)/TBS was added, were subjected to ELISA by the following procedure. A StreptaWell 96 microtiter plate (Roche) was coated overnight with 100 μl of TBS containing biotin-labeled antigen. […] Then, the developed color was assessed by measuring absorbance at 450 nm. […]
First, a StreptaWell 96 microtiter plate (Roche) was coated at room temperature for one hour or more with 100 μl of TBS containing a biotin-labeled antigen. […] Then, the developed color was assessed by measuring absorbance at 450 nm (FIGS. 25, 26, and 27). […]

Data set [1] can be described thus: Biacore T200, binding of D12 and ATNLSA1-4_D12 variants to ATP. The settings on record: 50 mM Tris-HCl, 500 mM NaCl, 0.01% Tween20, 15° C. An excerpt: Biacore T200 (GE Healthcare) was used to analyze the interaction of D12, in which the constant region of IgG is linked to the variable region of clone ATNLSA1-4_D12 with ATP- and adenosine-binding activity, in antigen-antibody reaction. Sensor chip CM5 or CM4 (GE Healthcare) was immobilized with an appropriate amount of protein A (Life technologies) by amine coupling. The antibody of interest was captured by the chip to allow interaction with ATP (Wako), adenosine (Wako), or ADP (adenosine diphosphate) (Wako) as an antigen. The running buffer used was 50 mM Tris-HCl (Takara, T903), 500 mM NaCl, 0.01% (w/v) Tween20. […] The interaction with the antigen was assessed at 15° C. […]
(§1) The dissociation constant KD (M) was calculated based on the association rate constant ka (1/Ms) and dissociation rate constant kd (1/s), both of which are kinetic parameters calculated from the sensorgram obtained by the measurement. Alternatively, the dissociation constant KD (M) was calculated using steady state analysis. Each parameter was calculated using the Biacore T200 Evaluation Software (GE Healthcare).
Each variant expressed and purified by the method described in Example 7-1 was assayed for its ATP and adenosine binding by the same method as described in Example 7-6 using Biacore. Based on the assay result, the affinity of each variant for ATP was calculated as a KD value. […]

Data set [2] is described as follows: Biacore T200, binding of D12 to ADP. The settings on record: 50 mM Tris-HCl, 500 mM NaCl, 0.01% Tween20, 15° C.
Source text: (§2) Biacore T200 (GE Healthcare) was used to analyze the interaction of D12, in which the constant region of IgG is linked to the variable region of clone ATNLSA1-4_D12 with ATP- and adenosine-binding activity, in antigen-antibody reaction. Sensor chip CM5 or CM4 (GE Healthcare) was immobilized with an appropriate amount of protein A (Life technologies) by amine coupling. The antibody of interest was captured by the chip to allow interaction with ATP (Wako), adenosine (Wako), or ADP (adenosine diphosphate) (Wako) as an antigen. The running buffer used was 50 mM Tris-HCl (Takara, T903), 500 mM NaCl, 0.01% (w/v) Tween20. The antigen was allowed to interact for 30 seconds at a flow rate of 30 μl/min, and was dissociated for 30 seconds. The interaction with the antigen was assessed at 15° C. The antigen was diluted using the same running buffer.
as §1

Data set [3] can be described thus: Phage ELISA, binding to 2′-adenosine-PEG-biotin, 5′-adenosine-PEG-biotin and ATP-PEG-biotin. As for the experimental part:
From single colonies of E. coli obtained by panning as described in the Example above, culture supernatants containing phages were collected according to a conventional method (Method Mol. Biol. (2002) 178, 133-145). The collected culture supernatants were treated by ultrafiltration using NucleoFast 96 (MACHERY-NAGEL). 100 μl of the culture supernatants were added to each well of NucleoFast 96 and centrifuged at 4500 g for 45 minutes to remove flow through. After addition of 100 μl of H2O, the NucleoFast 96 was washed by centrifugation at 4500 g for 30 minutes. After addition of 100 μl of TBS, the NucleoFast 96 was allowed to stand for five minutes at room temperature. Then, phage suspensions were collected from the supernatants.
Purified phages, to which TBS was added, were subjected to ELISA by the following procedure. […] Then, the developed color was assessed by measuring absorbance at 450 nm.
Next, for the purpose of confirming to which antigen of 2′-adenosine-PEG-biotin, 5′-adenosine-PEG-biotin, and ATP-PEG-biotin these clones have binding ability, the purified phages diluted with TBS were subjected to ELISA by the following procedure. […] Then, the developed color was assessed by measuring absorbance at 450 nm.

Data set [4] is described as follows: Biacore T200, binding of D12 and variants to adenosine (steady state, Formula 2). As to conditions: 15° C., specific response with/without 20 μmol/l ADP.
Source text: as §2, §1
In addition, the binding response was separately assessed in the presence of 20 μmol/l ADP. […]

The next data set is described as follows: Tm measurement by DSC. It is filed as physicochemical. As for the experimental part: Then, for the purpose of improving antibody stability, the framework sequence of ATNLSA1-4_D12 was restored to the germ line sequence VH3-21 by introducing into the framework sequence of ATNLSA1-4_D12, alterations Gln01Glu, Gln05Val, Asp10Gly, Asn30Ser, Leu48Val, and Asn58Tyr (numerals represent Kabat numbers). ATNLSA1-4_D12 variants expressed and purified by the method described in Example 7-1 were measured for their Tm by DSC. DSC measurement was carried out by a method known to those skilled in the art.

Data set [5] in a line: Competitive phage ELISA, inhibition of binding to biotin-labeled antigens by ATP. As to conditions: ATP from an equal amount up to 10000 times that of the antigen. The protocol: ATNLSA1-4_D12 and PF1 were each diluted with TBS and subjected to ELISA by the following procedure.
A StreptaWell 96 microtiter plate (Roche) was coated at room temperature for one hour with 100 μl of TBS containing biotin-labeled antigens (a mixture of 5′-adenosine-PEG-biotin and ATP-PEG-biotin). After the antigens were removed by washing each well of the plate with TBST, the wells were blocked with 250 μl of 2% skim milk/TBS for one hour or more. 2% skim milk/TBS was removed, and then the prepared, purified phages were added to each well. The plate was allowed to stand at room temperature for one hour to allow binding of the antibody-displaying phages to the antigens in each well. […] For the competition of the immobilized antigen with ATP, the plate was allowed to stand at room temperature for one hour. Then, after TBST wash, an HRP-conjugated anti-M13 antibody (Amersham Pharmacia Biotech) diluted with TBS was added to each well. The plate was incubated for one hour. Following TBST wash, the TMB single solution (ZYMED) was added to each well. The chromogenic reaction in the solution of each well was terminated by adding sulfuric acid. Then, the developed color was assessed by measuring absorbance at 450 nm.

From patent US11673947B2, “Target tissue-specific antigen-binding molecule” (Chugai Seiyaku Kabushiki Kaisha, priority 2012, dated 2023) come the findings set out here.

Chain of human IL6 (P05231 30-212): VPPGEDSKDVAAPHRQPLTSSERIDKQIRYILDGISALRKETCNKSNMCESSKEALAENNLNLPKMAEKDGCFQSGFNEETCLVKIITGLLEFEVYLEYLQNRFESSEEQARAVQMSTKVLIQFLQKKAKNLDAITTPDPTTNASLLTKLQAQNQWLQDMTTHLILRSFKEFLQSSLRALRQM

B1: I6RLSA1-6_011: clone with antigen-binding activity to human IL-6 in the absence of ATP and adenosine (antibody, V domains shown)
VH: EVQLVESGGDLVKPGGGLRLSCAASGFTFSGYTMHWVRQAPGKGLEWVSSISSRSSHISYADSVKGRFTISRDNAKNSLYLQMNSLRAEDTAVYYCARFGRKYRMNWVFDYWGQGTLVTVSS
VL: QSALTQPPSASGSPGQTVTISCTGTSTDVGFYNYVSWYQQHPGKAPKLMIYDTSKRPSGVPDRFSGSKSGNTASLTVSGLQAEDEADYFCSTVTGIWSVGFGGGTKLTVL
On to B1, for which, in the data set with human IL6, the “antigen-binding activity to human IL-6 in the absence of ATP and adenosine” value is “had an antigen-binding activity”.

B2: ATNLSA1-4_D12: ATP/adenosine-binding antibody from human antibody library; variable regions SEQ ID NOs: 46 and 47 (antibody, listed as Homo sapiens, V domains shown)
VH: QVQLQESGGDLVKPGGSLRLSCAASGFTFNTYTMNWVRQAPGKGLEWLSSISSRSNYINYADSVKGRFTISRDNAKNSLYLQMNSLRAEDTAVYYCARFGRKGDLNWVFDYWGQGTLVTVSS
VL: QSALTQPPSASGSPGQSVTISCTGTSSDVGGYNYVSWYQQHPGKAPKLMIYEVSKRPSGVPDRFSGSKSGNTASLTVSGLQAEDEADYFCSSYAGSNNVVFGGGTKLTVL
Consider B2, for which the Kd was found to be 8.5 µM in data set [1], 0.25 µM in data set [2] and 1100 µM in data set [4]. Besides, the “binding to biotin-labeled antigens (phage ELISA)” value in data set [3] was “had the ability to bind to both 5′-Adenosine-PEG-biotin and ATP-PEG-biotin”. In addition, the Tm in “Tm measurement by DSC” amounted to 74.37 °C. In addition, the “binding to antigen in the presence of ATP” value in data set [5] is listed as “inhibited in an ATP concentration-dependent manner”.
